These results are taken from WO1995025167A1.

The target in test [1] is EGFR on EGFR-bearing tumor cells (human) (UniProt P00533). Kind of test: flow cytometry, crude bacterial supernatant on A431 cells, positive control.
For test [2] the target is unchanged. Put plainly: flow cytometry, crude bacterial supernatant on HT29 cells, positive control.
Test [3] has the same target. Kind of test: flow cytometry, crude bacterial supernatant on MDA MB 231 cells, positive control.

Take scFv derived from MAb 425: the mean fluorescence (cytometric analysis) (arbitrary fluorescence units) is 85.5 in test [1], 2.5 in test [2] and 21.3 in test [3].
